The supplement of paper PMC10126150
± gives the standard deviation of the averaged measurements.

test system: ATP; experiment: switch fluorescence ratio, 500 uM ATP over buffer (Cy3 cluster intensity, sum of 5 cycles each) (fold (ratio)); higher = stronger signal-on switching upon ATP binding; sequences stand for … in TCGTCGGCAGCGTCAGATGTGTATAAGAGACAGTTTTTTTTTTTTTTTTTTTTTTTTT…TC; conditions: aptamer strand: ATP DNA aptamer (quencher-CACCTGGGGGAGTATTGCGGAGGAAGG + anchor), 100 nM annealed; ATP concentration: 500 uM
Outline: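 Cy3-labelled switching-strand clusters on a modified Illumina MiSeq flow-cell were annealed to 100 nM quencher-labelled ATP aptamer, imaged in selection buffer, then imaged after 15 min with 500 uM ATP at 22 °C. Five buffer/ATP cycles ran, with NaOH stripping and re-annealing between them. The fluorescence ratio is summed target-cycle over summed buffer-cycle Cy3 intensity per cluster, averaged per switch-domain sequence. Clusters outside 100-1000 RFU were excluded.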
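Note: ATP exposure 15 min at 22 °C before imaging.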

In order of falling switch fluorescence ratio:
1. ACGCATTACA  3.9 ± 1.6
2. TTTTCGCCAC  2.35 ± 1.3
3. GGGCATATAG  1.61 ± 0.71
4. GAAAAATTAC  1.49 ± 0.75
5. CTAAAACTTG  1.14 ± 0.13
6. CCGGATATGG  1.135 ± 0.0024
7. CACATGACAC  1.13 ± 0.015
8. AGGCGATAAT  1.12 ± 0.13
9. TTAACTGGGG  1.11 ± 0.13
10. CGCTAATTGG  1.09 ± 0.014
11. GTGGGAGGAC  1.078 ± 0.0018
12. TATACTGCGC  1.065 ± 0.0087
13. TCCAGGGGAT  1.07 ± 0.12
14. ATGTGGAGTC  1.05 ± 0.063
15. TCGGGATAGG  1.05 ± 0.018
16. TCGGATAGGG  1.04 ± 0.071
17. AAGTGCGATC  1.04 ± 0.019
18. TTGGTCAAAT  1.04 ± 0.022
19. AATTTGGTCC  1.04 ± 0.058
20. GGCATCGGAC  1.04 ± 0.015
21. GGGTGGTATT  1.03 ± 0.013
22. CAGGCCATGG  1.03 ± 0.094
23. AGTTTTGACC  1.03 ± 0.059
24. GGTATGGGGT  1.03 ± 0.058
25. TGCCCTGCCT  1.03 ± 0.024
26. TTAATAAACT  1.03 ± 0.051
27. TGTGGAATAA  1.03 ± 0.039
28. CGCGAGATAT  1.03 ± 0.043
29. CGTTGGACGG  1.03 ± 0.026
30. TTAACTAGAT  1.02 ± 0.016
31. TGTTGTTATT  1.018 ± 0.0091
32. GGGGAACAGA  1.02 ± 0.026
33. TTTGCTAAAT  1.02 ± 0.02
34. GCGGGGGGAT  1.02 ± 0.017
35. TGCTGTGTTT  1.02 ± 0.039
36. TTTTTTAGCA  1.02 ± 0.023
37. GACCACAGCG  1.02 ± 0.029
38. TTGGCTGTGC  1.02 ± 0.019
39. CTGGAATGGG  1.02 ± 0.056
40. AGGCCTTTTC  1.008 ± 0.0026
41. ATTTGAAGGT  1.01 ± 0.018
42. GGAAAAATGT  1.01 ± 0.025
43. CATGAATGGG  1.01 ± 0.032
44. TACGTCCCGA  1.01 ± 0.045
45. AAGGTATGC  1.01 ± 0.048
46. AATAAGAGGG  1.01 ± 0.026
47. GCACATAGCT  1.01 ± 0.025
48. ACGGGCTTAG  1.01 ± 0.016
49. CAGTGGGAAA  1.01 ± 0.029
50. AGGGGCAAAT  1.01 ± 0.029
51. GGTGTTTGGG  1 ± 0.039
52. TTTATGGGTA  1 ± 0.033
53. AGTCTCAGGC  1 ± 0.032
54. CGTTTAGTTG  1.002 ± 0.009
55. GCAGGGAGGG  1 ± 0.041
56. ACATGTGCGT  1.004 ± 0.01
57. GTGAGGCCCC  1 ± 0.02
58. CATTTCTGTT  1.004 ± 0.0047
59. AGGGAGAAGG  1 ± 0.011
60. GATGGGTCGT  1 ± 0.033
61. ATGGTTTTTT  1 ± 0.032
62. TACAGCGGAG  0.999 ± 0.066
63. GGTGGGGTTT  0.999 ± 0.054
64. AATTTCATTG  0.9986 ± 0.0035
65. TGCTGGTTGG  0.998 ± 0.026
66. TTAGGGGTCC  0.998 ± 0.022
67. AAAAGGGTTA  0.9976 ± 0.004
68. TTGTTTGTTT  0.997 ± 0.035
69. AGAGTCGTGC  0.997 ± 0.051
70. AGGGCGGTCA  0.996 ± 0.025
71. TTGCTCCTGT  0.9965 ± 0.0019
72. AGAGGCATCG  0.9941 ± 0.005
73. GGAGGAGAGC  0.994 ± 0.015
74. AGGAAATTTG  0.994 ± 0.031
75. TAAGGCGGGG  0.993 ± 0.042
76. CATGTTGGTT  0.992 ± 0.032
77. TTGATTGATT  0.9916 ± 0.0055
78. TTTTGGGACC  0.992 ± 0.037
79. ATTGTGTTTT  0.99 ± 0.062
80. CAAAGGTCTC  0.986 ± 0.023
81. TGGTTAGAAT  0.986 ± 0.024
82. AGAAGATGGT  0.9827 ± 0.0029
83. TGCTGGTATA  0.983 ± 0.038
84. GTCATTTGTA  0.9813 ± 0.0074
85. CATTCCCTGA  0.981 ± 0.011
86. TAGGGGTGCC  0.98 ± 0.034
87. TAATGTGGTA  0.979 ± 0.056
88. TAGAGGAAGG  0.979 ± 0.021
89. CTTAAAAATT  0.9777 ± 0.0031
90. GGCAGCCGGG  0.97 ± 0.018
91. TTTGAATCGG  0.97 ± 0.027
92. TTCATTCATG  0.97 ± 0.0033
93. TTGGCTTCAT  0.968 ± 0.016
94. GTTGTAGCCA  0.966 ± 0.043
95. ACTGGGGATG  0.963 ± 0.043
96. GTTATAGTAT  0.963 ± 0.054
97. GATTTGAGTG  0.959 ± 0.027
98. GAGTTCTTAG  0.9587 ± 0.0011
99. TAAAAGAGGG  0.9558 ± 0.0023
100. GATGGTTGTG  0.95 ± 0.037
